Experimental data published in the supplement of paper PMC6757056.
± gives the standard deviation of the averaged measurements.

B1: library; a variant is named by its letters at N, in order (parent)
chain: GCUGUCACCGGUGCUUGGUACGUUAUAUUCAGCCGGUCUGAUGAGUCUNNNNNNAGACGAAACAGC

Assays:
(6R,S)-folinic acid [1] = variants of: B1; assay: normalized RNA/DNA level without ligand (relative to sTRSVctl = 100) (log10 (% of sTRSVctl)); HEK293T overexpressing SLC46A1; higher = less ribozyme self-cleavage, higher mRNA level; conditions: without (6R,S)-folinic acid; ligand present: no
In short: (§1)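 Total RNA, extracted with EDTA 72 h after HEK293T cells were transfected with 4 µg per 6-well well of reporter-linked ribozyme switch library plasmids, was reverse-transcribed, amplified, barcoded and sequenced. Ligand, if used, was added 1 h before transfection. RNA level was derived from RNA reads divided by DNA reads and normalized to a spiked-in non-cleaving sequence or to the top sequences. This was multiplied by 100 and log10-transformed, with the top set of 25 sequences and a ≥100 DNA read minimum.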

(6R,S)-folinic acid [2] = variants of: B1; assay: normalized RNA/DNA level with ligand (relative to sTRSVctl = 100) (log10 (% of sTRSVctl)); HEK293T overexpressing SLC46A1; ligand concentration (+) RNA-Seq: 6 mM; higher = less ribozyme self-cleavage, higher mRNA level; conditions: with (6R,S)-folinic acid; ligand present: yes
In short: as §1

Variant | normalized RNA/DNA level without ligand (log10) ((6R,S)-folinic acid [1]) | normalized RNA/DNA level with ligand (log10) ((6R,S)-folinic acid [2])
GCUGUCACCGGUGCUUGGUACGUUAUAUUCAGCCGGUCUGAUGAGUCUGCUCAGAGACGAAACAGC [GCUCAG] | 1.96 ± 0.0025 | 2.02 ± 0.03
GCUGUCACCGGUGCUUGGUACGUUAUAUUCAGCCGGUCUGAUGAGUCUACUCGCAGACGAAACAGC [ACUCGC] | 2.034 ± 0.012 | 2.01 ± 0.041
GCUGUCACCGGUGCUUGGUACGUUAUAUUCAGCCGGUCUGAUGAGUCUACUCGAAGACGAAACAGC [ACUCGA] | 1.994 ± 0.019 | 2.03 ± 0.025
GCUGUCACCGGUGCUUGGUACGUUAUAUUCAGCCGGUCUGAUGAGUCUACUAUUAGACGAAACAGC [ACUAUU] | 2.027 ± 0.0052 | 2.02 ± 0.043
GCUGUCACCGGUGCUUGGUACGUUAUAUUCAGCCGGUCUGAUGAGUCUACUAUGAGACGAAACAGC [ACUAUG] | 1.9049 ± 0.00034 | 2.008 ± 0.016
GCUGUCACCGGUGCUUGGUACGUUAUAUUCAGCCGGUCUGAUGAGUCUGCUAUGAGACGAAACAGC [GCUAUG] | 1.99 ± 0.022 | 2.02 ± 0.035
GCUGUCACCGGUGCUUGGUACGUUAUAUUCAGCCGGUCUGAUGAGUCUGCUAUUAGACGAAACAGC [GCUAUU] | 2.054 ± 0.013 | 2.04 ± 0.041
GCUGUCACCGGUGCUUGGUACGUUAUAUUCAGCCGGUCUGAUGAGUCUACUCCGAGACGAAACAGC [ACUCCG] | 2.001 ± 0.014 | 2.03 ± 0.064
GCUGUCACCGGUGCUUGGUACGUUAUAUUCAGCCGGUCUGAUGAGUCUACUCCCAGACGAAACAGC [ACUCCC] | 2.054 ± 0.0096 | 2.02 ± 0.048
GCUGUCACCGGUGCUUGGUACGUUAUAUUCAGCCGGUCUGAUGAGUCUACUCCUAGACGAAACAGC [ACUCCU] | 2.075 ± 0.0094 | 2.08 ± 0.05
GCUGUCACCGGUGCUUGGUACGUUAUAUUCAGCCGGUCUGAUGAGUCUACUCCAAGACGAAACAGC [ACUCCA] | 2.056 ± 0.0064 | 2.04 ± 0.054
GCUGUCACCGGUGCUUGGUACGUUAUAUUCAGCCGGUCUGAUGAGUCUUCUCAGAGACGAAACAGC [UCUCAG] | 1.958 ± 0.012 | 1.98 ± 0.027
GCUGUCACCGGUGCUUGGUACGUUAUAUUCAGCCGGUCUGAUGAGUCUUCUCACAGACGAAACAGC [UCUCAC] | 2.098 ± 0.0045 | 2.04 ± 0.035
GCUGUCACCGGUGCUUGGUACGUUAUAUUCAGCCGGUCUGAUGAGUCUUCUCAAAGACGAAACAGC [UCUCAA] | 1.96 ± 0.0096 | 1.98 ± 0.024
GCUGUCACCGGUGCUUGGUACGUUAUAUUCAGCCGGUCUGAUGAGUCUUCUCAUAGACGAAACAGC [UCUCAU] | 2.032 ± 0.015 | 2.023 ± 0.011
GCUGUCACCGGUGCUUGGUACGUUAUAUUCAGCCGGUCUGAUGAGUCUUCUCGCAGACGAAACAGC [UCUCGC] | 2.1 ± 0.032 | 2.05 ± 0.028
GCUGUCACCGGUGCUUGGUACGUUAUAUUCAGCCGGUCUGAUGAGUCUGCUCCCAGACGAAACAGC [GCUCCC] | 2.06 ± 0.031 | 2.06 ± 0.036
GCUGUCACCGGUGCUUGGUACGUUAUAUUCAGCCGGUCUGAUGAGUCUGCUCCGAGACGAAACAGC [GCUCCG] | 2.027 ± 0.0072 | 2.05 ± 0.055
GCUGUCACCGGUGCUUGGUACGUUAUAUUCAGCCGGUCUGAUGAGUCUGCUCCAAGACGAAACAGC [GCUCCA] | 2.02 ± 0.019 | 2.03 ± 0.037
GCUGUCACCGGUGCUUGGUACGUUAUAUUCAGCCGGUCUGAUGAGUCUGCUCCUAGACGAAACAGC [GCUCCU] | 2.09 ± 0.024 | 2.07 ± 0.04
GCUGUCACCGGUGCUUGGUACGUUAUAUUCAGCCGGUCUGAUGAGUCUCCUAUUAGACGAAACAGC [CCUAUU] | 2.038 ± 0.0071 | 2.04 ± 0.022
